According to patent US20010009766A1:

Key:
[1] = molecular target: human GALR3 receptor (human) (UniProt O60755); assay: cell-based or functional assay
rat GALR3 receptor (rat) [2] = assay: apparent binding affinity, rat GalR3 in COS-7 (repeats Table 4)
rat GALR3 receptor (rat) [3] = assay: displacement of porcine 125I-galanin, membranes of stable cell line 293-rGalR3-105
rat GALR3 receptor (rat) [4] = assay: displacement of porcine 125I-galanin, rat GalR3 transiently expressed in COS-7 membranes
rat GALR1 receptor (rat) = assay: displacement of porcine 125I-galanin, membranes of transiently transfected COS-7 cells
rat GALR3 receptor (rat) [5] = assay: as above
rat GALR2 receptor (rat) = rat GALR2 receptor (rat) (UniProt O08726); assay: as above
[6] = molecular target: human GALR3 receptor (human) (UniProt O60755); assay: displacement of porcine 125I-galanin, membranes of stable LM(tk-) line L-hGalR3-228

Chain of human GALR3 receptor (human) (O60755 whole entry, form in doubt): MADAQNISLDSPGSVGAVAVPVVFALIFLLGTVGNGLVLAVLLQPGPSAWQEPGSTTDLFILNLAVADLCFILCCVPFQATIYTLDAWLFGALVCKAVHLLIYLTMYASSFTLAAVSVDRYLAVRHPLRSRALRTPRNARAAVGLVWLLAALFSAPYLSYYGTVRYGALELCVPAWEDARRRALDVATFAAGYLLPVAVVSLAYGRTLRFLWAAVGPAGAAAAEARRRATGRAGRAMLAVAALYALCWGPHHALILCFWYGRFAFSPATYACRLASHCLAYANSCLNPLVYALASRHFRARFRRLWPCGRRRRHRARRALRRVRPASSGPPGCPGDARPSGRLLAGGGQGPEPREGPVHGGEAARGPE
Chain of rat GALR2 receptor (rat) (O08726 whole entry): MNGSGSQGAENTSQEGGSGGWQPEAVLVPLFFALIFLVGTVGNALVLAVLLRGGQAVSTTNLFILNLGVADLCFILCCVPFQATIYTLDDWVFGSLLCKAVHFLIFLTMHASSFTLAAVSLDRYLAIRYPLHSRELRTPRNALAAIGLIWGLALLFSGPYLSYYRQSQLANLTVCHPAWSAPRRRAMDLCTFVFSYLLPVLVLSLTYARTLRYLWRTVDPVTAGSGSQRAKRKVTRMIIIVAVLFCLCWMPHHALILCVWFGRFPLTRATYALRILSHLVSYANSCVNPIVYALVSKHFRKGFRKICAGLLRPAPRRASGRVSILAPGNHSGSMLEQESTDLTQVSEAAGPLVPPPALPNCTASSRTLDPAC

Oocyte EC50 (stimulation of GIRKs) [1] [nM]	Ki (rat GALR3 receptor (rat) [2]) [nM]	Ki (rat GALR3 receptor (rat) [3]) [nM]	Ki (rat GALR3 receptor (rat) [4]) [nM]	Ki (rat GALR1 receptor (rat)) [nM]	Ki (rat GALR3 receptor (rat) [5]) [nM]	Ki (rat GALR2 receptor (rat)) [nM]	Ki [6] [nM]	Substance
1910	–	–	–	–	–	–	–	galanin -7 to +29 (peptide)
343	23	9.6	23	16	68	–	–	C7 (peptide)
–	–	–	–	–	> 1000	–	–	D-Trp2-galanin 1-29 (peptide)
–	–	–	9	9.5	18	2	–	galantide (peptide)
–	–	3.2	3.7	0.33	6.7	0.57	7.8	M35 (peptide)
–	–	–	–	–	> 1000	–	–	D-Trp2-galanin 1-16 (peptide)
